Reference: patent publication US20230063794A1, “STAPLED TRIAZOLE CO-AGONISTS OF THE GLUCAGON AND GLP-1 RECEPTORS” (Merck Sharp & Dohme LLC, priority 2019, published 2023)
Starred links: 1 amine or outer side, 2 acyl side, 3 side chain; linkers in the order of their positions; H or OH if unused. Positions of bridges follow the written chain, without caps; N, C: chain ends. Non-standard residues stand in square brackets, D forms with d. Residues, ends and D or L forms follow the SMILES beside them. Groups on a side chain read outwards from the residue. Triazole bridges read from a SMILES are 1,4-linked. No end group written: not given here. *: point of attachment. Peg3N3Ala = O-(2-(2-(2-azidoethoxy)ethoxy)ethyl)-L-serine, [N-]=[N+]=NCCOCCOCCOC[C@H](N[*:1])C(=O)[*:2]; Lys(N3) = [N-]=[N+]=NCCCC[C@H](N)C(=O)O; γGlu = O=C(O)[C@H](CCC(=O)[*:2])N[*:1]; Met(O2) = CS(=O)(=O)CC[C@H](N)C(=O)O; Palmitoyl = CCCCCCCCCCCCCCCC(=O)*; dPra = C#CC[C@@H](N)C(=O)O; Nle = CCCC[C@H](N)C(=O)O; Ac4c = NC1(C(=O)O)CCC1; Aib = CC(C)(N)C(=O)O

What was measured:
human GCGR = biological target: T1, human GCGR (Homo sapiens, UniProt P47871); experiment: cAMP activity assay in cells expressing human GCGR; type: cell-based
T1 construct: expressed in transfected cells; grown under Blasticidin and Hygromycin selection
Description: Activity of the peptides at the Glucagon receptor (GCGR) and GLP-1 receptor (GLP1R) was measured in a cAMP activity assay.
Peptides were dissolved in 100% DMSO and serially diluted to generate 10 point titrations. The peptide solutions were then transferred into 384-well assay plates (150 nL/well). Assay ready frozen cells expressing human GLP1R or human GCGR were suspended in growth media consisting of DMEM medium (GIBCO), 10% FBS (GIBCO), 1× NEAA(GIBCO), 1× P/S (GIBCO), 10 ug/ml Blasticidin (GIBCO) and 200 μg/mL Hygromycin (GIBCO). Cells were then diluted in assay buffer consisting of PBS (GIBCO), 7.5% BSA (Perkin Elmer), 100 μM RO 20-1724 (Sigma), with or without 20% human serum (MP Biomedical). The cell suspensions (15 μL) were then added to the assay plates containing the peptide solutions (30,000 cells/well for human GCGR; 10,000 cells/well for human GLP1R). The cells were incubated for 1 hour at room temperature in the dark. Production of cAMP was determined using HitHunter™ cAMPXS kits (DiscoverX) following manufacturer protocol. The plates were incubated for overnight at room temperature in the dark. Luminescence was measured using an EnVision Multilabel plate reader (Perkin Elmer). Native GLP-1 and Glucagon (Bachem) are used as control peptides. EC50 values were calculated using uses a 4 parameter logistic fit based on the Levenberg-Marquardt algorithm.

[1] = biological target: human GLP-1 receptor (GLP1R) (human, UniProt P43220 24-463); experiment: cell-based or functional assay
[2] = biological target: human Glucagon receptor (GCGR) (human, UniProt P47871 26-477); experiment: cell-based or functional assay
Sequence of human Glucagon receptor (GCGR) (P47871 26-477): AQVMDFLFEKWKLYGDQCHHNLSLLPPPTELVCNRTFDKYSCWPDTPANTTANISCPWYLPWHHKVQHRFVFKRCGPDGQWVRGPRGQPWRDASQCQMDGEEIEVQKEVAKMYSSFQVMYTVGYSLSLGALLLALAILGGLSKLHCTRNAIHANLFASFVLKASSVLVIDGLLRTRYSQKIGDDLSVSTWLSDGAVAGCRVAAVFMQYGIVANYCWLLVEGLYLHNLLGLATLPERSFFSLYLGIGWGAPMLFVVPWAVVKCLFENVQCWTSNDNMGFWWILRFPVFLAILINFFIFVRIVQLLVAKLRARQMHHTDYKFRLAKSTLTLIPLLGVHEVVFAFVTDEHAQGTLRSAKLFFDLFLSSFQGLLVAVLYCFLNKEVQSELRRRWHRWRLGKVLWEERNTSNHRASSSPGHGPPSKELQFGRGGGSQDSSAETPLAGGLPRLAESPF

T1 sequence (P47871 26-477): as above

| Molecule | hGCGR/hGLP1R (hTone) (human GCGR; ratio of human GCGR EC50 to human GLP1R EC50) | EC50 (human GCGR; cAMP production, HitHunter cAMPXS, 1 hour, assay buffer with or without 20% human serum (not given)) [nM] | GLP1R EC50 human (nM), cAMP activity assay [1] [nM] | GCGR EC50 human (nM), cAMP activity assay [2] [nM] |
| --- | --- | --- | --- | --- |
| CCCCCCCCCCCCCCCC(=O)N[C@@H](CCC(=O)N[C@@H](CCC(=O)NCCCC[C@H](NC(=O)[C@H](CC(=O)O)NC(=O)[C@H](CO)NC(=O)[C@@H](NC(=O)[C@H](Cc1ccccc1)NC(=O)[C@@H](NC(=O)CNC(=O)[C@H](CCC(N)=O)NC(=O)C(C)(C)NC(=O)[C@@H](N)Cc1c[nH]cn1)[C@@H](C)O)[C@@H](C)O)C(=O)N[C@@H](CO)C(=O)N[C@@H](CCCCN)C(=O)N[C@@H](Cc1ccc(O)cc1)C(=O)N[C@@H](CC(C)C)C(=O)N[C@@H](CC(=O)O)C(=O)NC(C)(C)C(=O)N[C@@H](CCCNC(=N)N)C(=O)N[C@@H](C)C(=O)N[C@@H](C)C(=O)N[C@@H](CCC(N)=O)C(=O)N[C@@H](CC(=O)O)C(=O)N[C@@H](Cc1ccccc1)C(=O)N[C@H](C(=O)N[C@@H]1Cc2cn(nn2)CCCC[C@@H](C(=O)N[C@H](C(N)=O)[C@@H](C)O)NC(=O)[C@H](CCCC)NC(=O)[C@H](CC(C)C)NC(=O)[C@H](Cc2c[nH]c3ccccc23)NC1=O)C(C)C)C(=O)O)C(=O)O [compound 19] | 0.99 |  |  |  |
| CSCC[C@@H]1NC(=O)[C@H](CC(C)C)NC(=O)[C@H](Cc2c[nH]c3ccccc23)NC(=O)[C@H](NC(=O)[C@@H](NC(=O)[C@H](Cc2ccccc2)NC(=O)[C@H](CC(=O)O)NC(=O)[C@H](CCC(N)=O)NC(=O)[C@H](C)NC(=O)[C@H](C)NC(=O)[C@H](CCCNC(=N)N)NC(=O)C(C)(C)NC(=O)[C@H](CC(=O)O)NC(=O)[C@H](CC(C)C)NC(=O)[C@H](Cc2ccc(O)cc2)NC(=O)[C@H](CCCCN)NC(=O)[C@H](CO)NC(=O)[C@H](CCCCN)NC(=O)[C@H](CC(=O)O)NC(=O)[C@H](CO)NC(=O)[C@@H](NC(=O)[C@H](Cc2ccccc2)NC(=O)[C@@H](NC(=O)CNC(=O)[C@H](CCC(N)=O)NC(=O)C(C)(C)NC(=O)[C@@H](N)Cc2c[nH]cn2)[C@@H](C)O)[C@@H](C)O)C(C)C)Cc2cn(nn2)CCCC[C@@H](C(=O)N[C@H](C(=O)N[C@@H](CCCCN)C(=O)N[C@@H](CCC(N)=O)C(=O)O)[C@@H](C)O)NC1=O [compound 11] (H-H[Aib]QGTFTSDKSKYLD[Aib]RAAQDFV[dPra]WLM[Lys(N3)]TKQ-OH; triazole 24-28; N-terminus assumed) |  | ≥ 5 |  |  |
| H[Aib]QGTFTSDKSKYLD[Ac4c]RAAQDFV[dPra]WL[Met(O2)][Lys(N3)]TK-{γGlu-NH2} (triazole 24-28; not fully specified (residue 10); printed as HUQGTFTSDK(γEγEC16)SKYLDAcbRAAQDFVpra*WL2Nle(ϵN3)*T / KγE-NH2) [TP862] |  |  | 0.042 | 0.139 |
| H[dS]QGTFTSDK([γGlu-γGlu-Palmitoyl])SKYLDA[dPra]AAQ[Lys(N3)]FVQWLLDT-NH2 (triazole 17-21) [TP733] |  |  | 0.54 | 0.279 |
| H[Aib]QGTFTSDKSKYLD[Aib]RAAQDFV[Lys(N3)]WLM[dPra]TK-{γGlu-NH2} (triazole 24-28) [TP532] |  |  | 0.14 | 1.07 |
| H[dS]QGTFTSDK([γGlu-γGlu-Palmitoyl])SKYLD[dPra]RAA[Lys(N3)]DFVQWLLDT-NH2 (triazole 16-20) [TP731] |  |  | 0.034 | 0.03 |
| H[Aib]QGTFTSDK([γGlu-γGlu-Palmitoyl])SKYLD[dPra]RAA[Lys(N3)]DFVQWL[Nle]DT-NH2 (triazole 16-20) [TP837] |  |  | 0.042 | 0.048 |
| HXQGTFTSDXSKYLDERAAXDFVXWLLDT (D-Ser at 2; Lys 10 conjugated to γEγE-C16 fatty acid; pra at 20 and Nle(εN3) at 24 cyclized to a triazole containing ring; C-terminal amide) [TP488] |  |  | 0.042 | 0.04 |
| H[Aib]QGTFTSDK([γGlu-γGlu-Palmitoyl])SKYLD[Aib]RAAQDFV[dPra]WL[Met(O2)][Lys(N3)]TK-{γGlu-NH2} (triazole 24-28) [TP851] |  |  | 0.025 | 0.109 |
| HXQGTFTSDKSKYLDERAAXDFVXWLLDT (D-Ser at 2; pra at 20 and Nle(εN3) at 24 cyclized to a triazole containing ring; C-terminal amide) [TP531] |  |  | 0.168 | 0.323 |
| HXQGTFTSDXSKYLDARAAQDFVXWLLXT (D-Ser at 2; Lys 10 conjugated to γEγE-C16 fatty acid; Nle(εN3) at 24 and pra at 28 cyclized to a triazole containing ring; C-terminal amide) [TP852] |  |  | 0.109 | 0.059 |
| HXQGTFTSDXSKYLDERAAXDFVXWLLDT (D-Ser at 2; Lys 10 conjugated to γEγE-C16 fatty acid; Nle(εN3) at 20 and pra at 24 cyclized to a triazole containing ring; C-terminal amide) [TP487] |  |  | 0.22 | 0.09 |
| H[Aib]QGTFTSDKSKYLD[Aib]RAAQDFV[dPra]WLM[Lys(N3)]TK-{γGlu-NH2} (triazole 24-28; also: lower-case v at 23 not defined) [TP533] |  |  | 3.11 | 5 |
| H[dS]QGTFTSDK([γGlu-γGlu-Palmitoyl])SKYLDA[dPra]AAQDFV[Peg3N3Ala]WLLDT-NH2 (triazole 17-24) [TP920] |  |  | 0.416 | 0.115 |
| H[dS]QGTFTSDK([γGlu-γGlu-Palmitoyl])SKYLDARAA[dPra]DFV[Lys(N3)]WLLDT-NH2 (triazole 20-24) [TP732] |  |  | 0.123 | 0.052 |
| H[Aib]QGTFTSDK([γGlu-γGlu-Palmitoyl])SKYLD[Aib]RAA[dPra]DFV[Lys(N3)]WL[Met(O2)]DTK-{γGlu-NH2} (triazole 20-24) [TP847] |  |  | 0.024 | 0.107 |
| H[Aib]QGTFTSDK([γGlu-γGlu-Palmitoyl])SKYLD[Aib][dPra]AAQ[Lys(N3)]FVQWL[Met(O2)]DTK-{γGlu-NH2} (triazole 17-21) [TP849] |  |  | 0.041 | 0.25 |
| H[Aib]QGTFTSDK([γGlu-γGlu-Palmitoyl])SKYLD[Ac4c]RAA[dPra]DFV[Lys(N3)]WL[Met(O2)]DTK-{γGlu-NH2} (triazole 20-24) [TP860] |  |  | 0.042 | 0.077 |
| H[Aib]QGTFTSDK([γGlu-γGlu-Palmitoyl])SKYLD[Ac4c][dPra]AAQ[Lys(N3)]FVQWL[Met(O2)]DTK-{γGlu-NH2} (triazole 17-21) [TP858] |  |  | 0.042 | 0.064 |
| H[Aib]QGTFTSDK([γGlu-γGlu-Palmitoyl])SKYLD[Aib][dPra]AAQ[Lys(N3)]FVQWL[Nle]DT-NH2 (triazole 17-21) [TP841] |  |  | 0.414 | 0.819 |
| HXQGTFTSDKSKYLDERAAXDFVXWLLDT (D-Ser at 2; Nle(εN3) at 20 and pra at 24 cyclized to a triazole containing ring; C-terminal amide) [TP530] |  |  | 0.03 | 0.06 |
| HXQGTFTSDXSKYLDARAAQDFVXWLLXT (D-Ser at 2; Lys 10 conjugated to γEγE-C16 fatty acid; pra at 24 and Nle(εN3) at 28 cyclized to a triazole containing ring; C-terminal amide) [TP835] |  |  | 0.199 | 0.143 |
| H[Aib]QGTFTSDK([γGlu-γGlu-Palmitoyl])SKYLD[dPra]RAA[Lys(N3)]DFVQWL[Met(O2)]DTK-{γGlu-NH2} (triazole 16-20) [TP845] |  |  | 0.027 | 0.134 |
